This note sets out measurements from patent US20250236666A1 (UNIVERSITE DE LILLE, published 2025).

Residue numbers refer to the chain shown, from its start. No end group written: not given here. *: point of attachment. Biotin = O=C1N[C@H]2[C@H](CS[C@H]2CCCCC(=O)*)N1; C6spacer = C6 spacer

Experiment [1] concerns the target T1, Peptide 2 (Pore Forming 1) TEDPEELGHFYDYPMAK-[biot] (human).
T1 construct: Synthetic biotinylated peptide immobilized at 10 µg/mL on streptavidin plates; also called P2
T1 peptide: TEDPEELGHFYDYPMAK-biotin
The experiment is described as follows: dose-response ELISA, biotinylated peptide on streptavidin plate, IgG 0.00282 to 500 nM, anti-Fab-HRP. Here is the method: (§1) TRPV6 biotinylated peptides were immobilized at 10 μg/mL on a streptavidin coated plate. IgGs binding was tested at different concentrations (from 0.00282 to 500 nM) and detected using an anti-Fab-HRP (Sigma A0293).
(§2) IgGs binding to Human TRPV6 peptides was tested by ELISA. TRPV6 biotinylated peptides were immobilized at 10 μg/mL on a streptavidin coated plate. IgGs binding was tested at different concentrations (from 0.00282 to 500 nM) and detected using an anti-Fab-HRP (Sigma A0293).

Experiment [2] deals with T2, Peptide 3 (Pore Forming 2) [biot]-[C6spacer]-DGPANYNVDLPFMYS (human).
T2 construct: Synthetic biotinylated peptide immobilized at 10 µg/mL on streptavidin plates; also called P3
T2 peptide: {Biotin-C6spacer}-DGPANYNVDLPFMYS
The description is as above. As to the method:
as §1, §2

Experiment [3] addresses T3, Human Transient Receptor Potential Vanilloid 6 (TRPV6) channel protein (human, UniProt Q9H1D0 1-765, glycosylated/mature form (band around 95-100 kDa); N-glycosylation site at position 397).
T3 construct: Endogenous or vector-expressed TRPV6 of human cell lines (LNCaP, PC3M luc C6, transfected HEK); On live cells in flow cytometry and the functional assays; in whole cell lysates under denaturing conditions (monomer) in the immunoblots; also called hTRPV6
T3 sequence: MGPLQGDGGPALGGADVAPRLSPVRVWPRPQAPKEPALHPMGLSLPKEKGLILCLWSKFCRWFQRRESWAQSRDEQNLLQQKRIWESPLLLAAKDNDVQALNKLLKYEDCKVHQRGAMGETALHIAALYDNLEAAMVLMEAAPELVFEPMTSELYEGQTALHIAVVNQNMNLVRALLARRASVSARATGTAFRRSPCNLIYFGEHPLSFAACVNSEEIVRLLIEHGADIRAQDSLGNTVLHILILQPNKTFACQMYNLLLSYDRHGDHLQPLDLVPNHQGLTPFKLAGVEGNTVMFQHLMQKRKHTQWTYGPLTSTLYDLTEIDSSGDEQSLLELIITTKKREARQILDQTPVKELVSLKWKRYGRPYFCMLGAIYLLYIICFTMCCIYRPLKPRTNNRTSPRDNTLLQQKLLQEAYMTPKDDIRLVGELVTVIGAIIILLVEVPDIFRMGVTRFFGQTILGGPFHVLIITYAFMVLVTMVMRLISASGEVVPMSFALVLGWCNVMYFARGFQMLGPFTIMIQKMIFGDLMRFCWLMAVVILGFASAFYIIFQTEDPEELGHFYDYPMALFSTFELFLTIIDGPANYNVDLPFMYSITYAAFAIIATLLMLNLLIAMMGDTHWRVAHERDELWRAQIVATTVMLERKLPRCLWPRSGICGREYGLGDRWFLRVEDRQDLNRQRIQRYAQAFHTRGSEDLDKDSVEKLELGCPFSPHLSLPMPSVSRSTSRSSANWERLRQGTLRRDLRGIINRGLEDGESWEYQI
The experiment is described as follows: immunoblotting of LNCaP whole cell lysates, denaturing conditions.

B1: Monoclonal antibody P2-R4-G08 (antibody, human IgG1, kappa, V domains shown)
VH: EVQLVESGGSLVKPGGSLRLSCAASGFTFSNYGMNWVRQAPGKGLEWISGISGSSRSIGYADFVKGRFTISRDNAKNSLYLQMNSLRAEDTAVYYCVRSSYYYGMDVWGRGTLVTVSS
VL: QSVLTQPASVSGSPGQSITISCAGTSSDVGGYGQVSWYQQHPGKAPKLMIYSDSSRPSGVSNRFSGSKSGNTASLTISGLQAEDEADYYCSSYTSYSTRVFGGGTKLEIKR
notes: scFv from phage display subcloned into Human IgG1 format, expressed in HEK293T; also called P2-R4-G8
For the molecule B1, the EC50 in experiment [1] worked out at 0.49 nM.

B2: Monoclonal antibody P3-R5-E06 (antibody, human IgG1, kappa, V domains shown)
VH: EVQLVESGGSLVKPGGSLRLSCAASGFTFSNAYMNWVRQAPGKGLEWISSISGSSSYIGYADFVKGRFTISRDNAKNSLYLQMNSLRAEDTAVYYCVRSSYYNYDYGDAMDVWGRGTLVTVSS
VL: B1 VL with Y32N, G33Y, Q34Y, S52Q, S55N, S95G
notes: scFv from phage display subcloned into Human IgG1 format, expressed in HEK293T; also called P3-R5-E6
In the case of B2, it took 0.98 nM to reach a half-maximal effect in experiment [2] (EC50).

B3: Monoclonal antibody P3-R5-H03 (antibody, human IgG1, kappa, V domains shown)
VH: B1 VH with Y32A, G50Y, S57Y, G59N, Y101S, Y102S
VL: B1 VL with Y32G, G33Y, Q34Y, S52G, S55N, Y93N, S95Y
notes: scFv from phage display subcloned into Human IgG1 format, expressed in HEK293T; also called P3-R5-H3
B3: in experiment [2], the EC50 worked out at 0.36 nM.

B4: Monoclonal antibody P3-R4-F03 (antibody, human IgG1, kappa, V domains shown)
VH: EVQLVESGGSLVKPGGSLRLSCAASGFTFSNNYMNWVRQAPGKGLEWISSIGGSSRDIYYADFVKGRFTISRDNAKNSLYLQMNSLRAEDTAVYYCVRSNSGMDVWGRGTLVTVSS
VL: B1 VL with Y32S, G33Y, Q34S, S52Y, S55Y, Y93N, S95Q, Y96S
notes: scFv from phage display subcloned into Human IgG1 format, expressed in HEK293T; also called P3-R4-F3
B4: in experiment [2], the concentration giving a half-maximal response (EC50) amounted to 0.86 nM.

B5: Monoclonal antibody P3-R4-E11 (antibody, human IgG1, kappa, V domains shown)
VH: EVQLVESGGSLVKPGGSLRLSCAASGFTFSNSGMNWVRQAPGKGLEWISGISGSSRYIGYADFVKGRFTISRDNAKNSLYLQMNSLRAEDTAVYYCVRSNYGGMDVWGRGTLVTVSS
VL: B1 VL with Q34Y, S52Y, S55Y, Y96Q
notes: scFv from phage display subcloned into Human IgG1 format, expressed in HEK293T
In experiment [2], B5 registered a concentration giving a half-maximal response (EC50) of 0.9 nM.

B6: Mouse monoclonal anti-TRPV6 antibody 82 (mAb82) (antibody, mouse IgG2a, kappa, V domains shown)
VH: EVKLLESGGGLVQPGGSLKLSCAASGFDFRRYWMSWVRQAPGKGLEWIGEINPDSSTINYTPSLKDKFIISRDNAKNTLYLQMSKVRSEDTALYYCARSASSHYFDYWGQGTTLTVSS
VL: DIVMSQSPSSLAVSVGEKVTMSCKSSQSLLYSSNQKNYLAWYQQKPGQSPKLLIYWASTRESGVPDRFTGSGSGTDFTLTISSVKAEDLAVYYCQQYYRYPTFGGGTKLEIKR
notes: also called mab82a; No. 82a
Regarding B6, the binding result in experiment [3] was “binds”.
